125 sequences from the supplement of paper PMC9112550, “Optimization of the antimicrobial peptide Bac7 by deep mutational scanning” (BMC Biology, 2022) can be followed below.

For the data set, the system named is Escherichia coli TOP10. Description: shrunken log2 fold change of peptide-encoding DNA abundance (4.5 h post-induction vs induction); higher = less antimicrobial activity (less host growth inhibition). To be noted: time post-induction: 4.5 h; library: site-saturation at positions 5, 18, 19, 20.
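Also: peptides expressed intracellularly from a pBAD plasmid library in pooled LB shake-flask culture, induced with 0.3% L-arabinose, DNA abundance read by NGS, three biological replicates, DESeq2 with apeglm shrinkage.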

On to RRIRCRPPRLPRPRPRPLNWPRP, for which the “shrunken log2 fold change” value came to 0.0486.

Turning to RRIRHRPPRLPRPRPRPYIIPRP, the “shrunken log2 fold change” value is -0.855. Turning to RRIRMRPPRLPRPRPRPIRIPRP, the “shrunken log2 fold change” value was -0.0023. For the sequence RRIRLRPPRLPRPRPRPRDYPRP, the “shrunken log2 fold change” value was -0.00546. Regarding RRIRKRPPRLPRPRPRPQMQPRP, the “shrunken log2 fold change” value was 0.134. RRIRARPPRLPRPRPRPCGKPRP: the “shrunken log2 fold change” value came to 0.659.

Consider RRIRKRPPRLPRPRPRPKAEPRP, for which the “shrunken log2 fold change” value came out at 0.669. In the case of RRIRKRPPRLPRPRPRPWADPRP, the “shrunken log2 fold change” value was -0.017. The figure for RRIRKRPPRLPRPRPRPRATPRP is 1.17; for RRIRSRPPRLPRPRPRPDWPPRP it is 0.149.

As for RRIRYRPPRLPRPRPRPGYLPRP, the “shrunken log2 fold change” value is -0.33. Turning to RRIRKRPPRLPRPRPRPAQDPRP, the “shrunken log2 fold change” value was 0.679. For RRIRPRPPRLPRPRPRPMDQPRP, the “shrunken log2 fold change” value was -0.113. On to RRIRGRPPRLPRPRPRPWAIPRP, for which the “shrunken log2 fold change” value amounted to 0.259.

Regarding RRIRDRPPRLPRPRPRPMFRPRP, the “shrunken log2 fold change” value was -0.114. For RRIRCRPPRLPRPRPRPRPDPRP, the “shrunken log2 fold change” value was found to be 0.276. Regarding RRIRIRPPRLPRPRPRPSDTPRP, the “shrunken log2 fold change” value was determined as 0.00546. On to RRIRKRPPRLPRPRPRPECHPRP, for which the “shrunken log2 fold change” value is -0.0136.

For the sequence RRIRIRPPRLPRPRPRPTNHPRP, the “shrunken log2 fold change” value is -0.587. With RRIRKRPPRLPRPRPRPKKPPRP, the “shrunken log2 fold change” value amounted to 0.0909.

Consider RRIRQRPPRLPRPRPRPLLKPRP, for which the “shrunken log2 fold change” value was -0.321. On to RRIRSRPPRLPRPRPRPVKIPRP, for which the “shrunken log2 fold change” value is -0.131. With RRIRYRPPRLPRPRPRPVYQPRP, the “shrunken log2 fold change” value is -0.341.

Consider RRIRCRPPRLPRPRPRPFETPRP, for which the “shrunken log2 fold change” value is -0.0151. RRIRGRPPRLPRPRPRPRPIPRP: the “shrunken log2 fold change” value came to 0.635. As for RRIRYRPPRLPRPRPRPEWIPRP, the “shrunken log2 fold change” value was 0.0106.

For the sequence RRIRNRPPRLPRPRPRPGPLPRP, the “shrunken log2 fold change” value turned out to be 0.0198. The figure for RRIRTRPPRLPRPRPRPIWDPRP is -0.414; for RRIRKRPPRLPRPRPRPFCMPRP it is -0.115; for RRIRPRPPRLPRPRPRPTMAPRP it is 0.502. The figure for RRIRTRPPRLPRPRPRPYKNPRP is -0.937; for RRIRPRPPRLPRPRPRPEHQPRP it is -0.0202; for RRIRSRPPRLPRPRPRPKLQPRP it is 0.117. For the sequence RRIRERPPRLPRPRPRPYMKPRP, the “shrunken log2 fold change” value was -0.438.

For the sequence RRIRDRPPRLPRPRPRPGEQPRP, the “shrunken log2 fold change” value was found to be 0.259.

Turning to RRIRPRPPRLPRPRPRPQYPPRP, the “shrunken log2 fold change” value is -0.133.

Take RRIRFRPPRLPRPRPRPFQQPRP: the “shrunken log2 fold change” value was -0.268. On to RRIRARPPRLPRPRPRPMDFPRP, for which the “shrunken log2 fold change” value is 2.73.

For RRIRTRPPRLPRPRPRPHVCPRP, the “shrunken log2 fold change” value was -0.04.

As for RRIRWRPPRLPRPRPRPEDTPRP, the “shrunken log2 fold change” value is -0.0372. RRIRDRPPRLPRPRPRPYETPRP: the “shrunken log2 fold change” value is -0.198. The figure for RRIRKRPPRLPRPRPRPCLSPRP is -0.161. The figure for RRIRIRPPRLPRPRPRPGNLPRP is -0.175.

For RRIRWRPPRLPRPRPRPSDVPRP, the “shrunken log2 fold change” value was -0.545. The figure for RRIRCRPPRLPRPRPRPKPDPRP is 0.296.

Regarding RRIRKRPPRLPRPRPRPATKPRP, the “shrunken log2 fold change” value is 0.253. Take RRIRMRPPRLPRPRPRPFMAPRP: the “shrunken log2 fold change” value was -0.236.

RRIRVRPPRLPRPRPRPGAFPRP: the “shrunken log2 fold change” value was found to be 0.0224. With RRIRIRPPRLPRPRPRPPPCPRP, the “shrunken log2 fold change” value turned out to be 0.0616. As to RRIRKRPPRLPRPRPRPSAEPRP, the “shrunken log2 fold change” value was 0.787. RRIRNRPPRLPRPRPRPCMSPRP: the “shrunken log2 fold change” value was -0.108. For RRIRVRPPRLPRPRPRPMVPPRP, the “shrunken log2 fold change” value is -0.189. Regarding RRIRRRPPRLPRPRPRPFLVPRP, the “shrunken log2 fold change” value was -0.566. For RRIRNRPPRLPRPRPRPCWKPRP, the “shrunken log2 fold change” value was -0.0657.

For RRIRTRPPRLPRPRPRPYREPRP, the “shrunken log2 fold change” value is -0.196. With RRIRVRPPRLPRPRPRPYWCPRP, the “shrunken log2 fold change” value was -0.409. As for RRIRCRPPRLPRPRPRPGSLPRP, the “shrunken log2 fold change” value was 0.0481. Turning to RRIRCRPPRLPRPRPRPHYAPRP, the “shrunken log2 fold change” value is -0.299. Take RRIRPRPPRLPRPRPRPYVYPRP: the “shrunken log2 fold change” value was -0.636. RRIRYRPPRLPRPRPRPHMNPRP: the “shrunken log2 fold change” value is -1.2. Regarding RRIRWRPPRLPRPRPRPTWQPRP, the “shrunken log2 fold change” value is 0.125. As to RRIRTRPPRLPRPRPRPPQMPRP, the “shrunken log2 fold change” value turned out to be 0.185. For RRIRWRPPRLPRPRPRPKSSPRP, the “shrunken log2 fold change” value turned out to be 0.000999. With RRIRQRPPRLPRPRPRPVQCPRP, the “shrunken log2 fold change” value is -0.16. For the sequence RRIRYRPPRLPRPRPRPLNGPRP, the “shrunken log2 fold change” value was -0.159. RRIRIRPPRLPRPRPRPDYCPRP: the “shrunken log2 fold change” value is -0.163. Consider RRIRRRPPRLPRPRPRPFLYPRP, for which the “shrunken log2 fold change” value is 0.0538. RRIRARPPRLPRPRPRPWAGPRP: the “shrunken log2 fold change” value is 0.233. Take RRIRTRPPRLPRPRPRPYDYPRP: the “shrunken log2 fold change” value is -0.00193. Take RRIRFRPPRLPRPRPRPCCKPRP: the “shrunken log2 fold change” value is -0.00992. Consider RRIRSRPPRLPRPRPRPCANPRP, for which the “shrunken log2 fold change” value is -0.113.

For RRIRYRPPRLPRPRPRPVRNPRP, the “shrunken log2 fold change” value was -0.161. On to RRIRCRPPRLPRPRPRPTEFPRP, for which the “shrunken log2 fold change” value was -0.0561. Take RRIRARPPRLPRPRPRPCLLPRP: the “shrunken log2 fold change” value stood at 0.0509.

For RRIRDRPPRLPRPRPRPGDYPRP, the “shrunken log2 fold change” value is 0.0583.

Turning to RRIRMRPPRLPRPRPRPIPVPRP, the “shrunken log2 fold change” value amounted to 0.0294. RRIRARPPRLPRPRPRPQKEPRP: the “shrunken log2 fold change” value was -0.0202. The figure for RRIRERPPRLPRPRPRPTYEPRP is -1.47; for RRIRHRPPRLPRPRPRPNATPRP it is 0.255. Take RRIRNRPPRLPRPRPRPHQGPRP: the “shrunken log2 fold change” value was -0.0861. In the case of RRIRSRPPRLPRPRPRPPAGPRP, the “shrunken log2 fold change” value is 0.704. The figure for RRIRMRPPRLPRPRPRPKLNPRP is 0.851; for RRIRPRPPRLPRPRPRPSHWPRP it is 0.959. With RRIRKRPPRLPRPRPRPWQPPRP, the “shrunken log2 fold change” value was 0.0588.

Consider RRIRKRPPRLPRPRPRPDFCPRP, for which the “shrunken log2 fold change” value stood at 0.129. In the case of RRIRPRPPRLPRPRPRPALKPRP, the “shrunken log2 fold change” value is 0.128. As to RRIRARPPRLPRPRPRPCFVPRP, the “shrunken log2 fold change” value is -0.0979. Turning to RRIRVRPPRLPRPRPRPCWHPRP, the “shrunken log2 fold change” value was -0.0327. The figure for RRIRSRPPRLPRPRPRPQGQPRP is -0.154; for RRIRARPPRLPRPRPRPCEHPRP it is 0.0977.

Regarding RRIRERPPRLPRPRPRPQPLPRP, the “shrunken log2 fold change” value is -0.202. Regarding RRIRFRPPRLPRPRPRPDGCPRP, the “shrunken log2 fold change” value is -0.0502. For the sequence RRIRIRPPRLPRPRPRPMWMPRP, the “shrunken log2 fold change” value was -0.0849. For the sequence RRIRPRPPRLPRPRPRPQAYPRP, the “shrunken log2 fold change” value is -0.215.

Consider RRIRPRPPRLPRPRPRPAKHPRP, for which the “shrunken log2 fold change” value was -0.023. As to RRIRQRPPRLPRPRPRPRYTPRP, the “shrunken log2 fold change” value is -0.126.

For RRIRRRPPRLPRPRPRPREDPRP, the “shrunken log2 fold change” value was found to be 0.811. Consider RRIRYRPPRLPRPRPRPEGPPRP, for which the “shrunken log2 fold change” value was found to be 0.12.

Take RRIRTRPPRLPRPRPRPANNPRP: the “shrunken log2 fold change” value is -0.736.

Regarding RRIRLRPPRLPRPRPRPCCLPRP, the “shrunken log2 fold change” value was -0.293. Consider RRIRARPPRLPRPRPRPMHVPRP, for which the “shrunken log2 fold change” value was -0.0248.

As for RRIRGRPPRLPRPRPRPGFYPRP, the “shrunken log2 fold change” value amounted to 0.512. For RRIRIRPPRLPRPRPRPRGKPRP, the “shrunken log2 fold change” value was 0.086. Turning to RRIRTRPPRLPRPRPRPEYPPRP, the “shrunken log2 fold change” value is -0.449. On to RRIRKRPPRLPRPRPRPDVPPRP, for which the “shrunken log2 fold change” value came to 0.501. Take RRIRDRPPRLPRPRPRPLTNPRP: the “shrunken log2 fold change” value is -0.19.

With RRIRHRPPRLPRPRPRPRATPRP, the “shrunken log2 fold change” value is 0.554. Regarding RRIRKRPPRLPRPRPRPRYSPRP, the “shrunken log2 fold change” value is -0.705. With RRIRFRPPRLPRPRPRPTFGPRP, the “shrunken log2 fold change” value was 0.0623. On to RRIRNRPPRLPRPRPRPPREPRP, for which the “shrunken log2 fold change” value was determined as 0.534. The figure for RRIRNRPPRLPRPRPRPVESPRP is -0.165; for RRIRWRPPRLPRPRPRPRNWPRP it is 0.172; for RRIRPRPPRLPRPRPRPRQKPRP it is 0.0891.

On to RRIRGRPPRLPRPRPRPQWSPRP, for which the “shrunken log2 fold change” value worked out at 0.157.

In the case of RRIRTRPPRLPRPRPRPCMTPRP, the “shrunken log2 fold change” value was -0.111.

With RRIRIRPPRLPRPRPRPTHFPRP, the “shrunken log2 fold change” value was -0.0417. Consider RRIRTRPPRLPRPRPRPKFKPRP, for which the “shrunken log2 fold change” value was -0.225.

Turning to RRIRRRPPRLPRPRPRPTLIPRP, the “shrunken log2 fold change” value is 0.157. The figure for RRIRLRPPRLPRPRPRPNGGPRP is -0.01; for RRIRHRPPRLPRPRPRPMIMPRP it is -0.266; for RRIRVRPPRLPRPRPRPETMPRP it is 0.0389. In the case of RRIRFRPPRLPRPRPRPGSCPRP, the “shrunken log2 fold change” value is -0.0149. The figure for RRIRRRPPRLPRPRPRPMYVPRP is -0.203. Regarding RRIRNRPPRLPRPRPRPWTNPRP, the “shrunken log2 fold change” value is -0.492. As to RRIRVRPPRLPRPRPRPQPYPRP, the “shrunken log2 fold change” value is -0.486.
